Data taken from the supplement of paper PMC9876800.

Tested on: peptide library, one residue held at a place counted from the S/T acceptor
Assay: relative phosphorylation of the sub-library (ratio to the mean residue at this position); higher = residue favoured
Method in brief: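 Spots on streptavidin membranes were phosphorimaged and quantified by densitometry to measure phosphorylation of biotinylated degenerate peptide sub-libraries by purified recombinant kinases, human or orthologue constructs. The reactions ran in 384-well plates for 90 min under kinase-specific conditions, with peptides at 50 μM and 50 μM ATP spiked with γ-32P-ATP. Relative sub-library phosphorylation is the ratio to the mean residue at that position.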

PRKG2, construct: Full length, human, sequence (Q13237 whole entry, looked up): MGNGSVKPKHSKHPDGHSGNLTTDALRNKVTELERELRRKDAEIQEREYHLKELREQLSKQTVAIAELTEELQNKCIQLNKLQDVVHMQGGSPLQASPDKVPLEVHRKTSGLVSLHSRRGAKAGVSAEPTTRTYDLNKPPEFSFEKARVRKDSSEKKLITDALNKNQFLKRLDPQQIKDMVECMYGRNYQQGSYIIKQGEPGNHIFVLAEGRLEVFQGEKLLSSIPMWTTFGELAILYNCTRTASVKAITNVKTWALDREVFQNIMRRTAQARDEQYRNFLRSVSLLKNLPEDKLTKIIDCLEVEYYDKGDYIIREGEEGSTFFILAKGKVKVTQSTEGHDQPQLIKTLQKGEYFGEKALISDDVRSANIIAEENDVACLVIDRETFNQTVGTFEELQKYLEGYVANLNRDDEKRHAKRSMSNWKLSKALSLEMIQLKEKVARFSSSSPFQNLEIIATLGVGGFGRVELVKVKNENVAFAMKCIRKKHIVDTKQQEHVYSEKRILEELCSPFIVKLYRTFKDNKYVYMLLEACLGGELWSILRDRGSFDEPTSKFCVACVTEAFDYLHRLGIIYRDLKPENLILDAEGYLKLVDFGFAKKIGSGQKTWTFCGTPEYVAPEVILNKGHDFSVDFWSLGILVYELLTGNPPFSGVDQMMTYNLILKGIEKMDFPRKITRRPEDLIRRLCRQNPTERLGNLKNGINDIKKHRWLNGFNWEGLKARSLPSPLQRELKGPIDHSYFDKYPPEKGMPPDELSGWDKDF
PRKDC, construct: Full length, human, sequence (P78527 whole entry, looked up): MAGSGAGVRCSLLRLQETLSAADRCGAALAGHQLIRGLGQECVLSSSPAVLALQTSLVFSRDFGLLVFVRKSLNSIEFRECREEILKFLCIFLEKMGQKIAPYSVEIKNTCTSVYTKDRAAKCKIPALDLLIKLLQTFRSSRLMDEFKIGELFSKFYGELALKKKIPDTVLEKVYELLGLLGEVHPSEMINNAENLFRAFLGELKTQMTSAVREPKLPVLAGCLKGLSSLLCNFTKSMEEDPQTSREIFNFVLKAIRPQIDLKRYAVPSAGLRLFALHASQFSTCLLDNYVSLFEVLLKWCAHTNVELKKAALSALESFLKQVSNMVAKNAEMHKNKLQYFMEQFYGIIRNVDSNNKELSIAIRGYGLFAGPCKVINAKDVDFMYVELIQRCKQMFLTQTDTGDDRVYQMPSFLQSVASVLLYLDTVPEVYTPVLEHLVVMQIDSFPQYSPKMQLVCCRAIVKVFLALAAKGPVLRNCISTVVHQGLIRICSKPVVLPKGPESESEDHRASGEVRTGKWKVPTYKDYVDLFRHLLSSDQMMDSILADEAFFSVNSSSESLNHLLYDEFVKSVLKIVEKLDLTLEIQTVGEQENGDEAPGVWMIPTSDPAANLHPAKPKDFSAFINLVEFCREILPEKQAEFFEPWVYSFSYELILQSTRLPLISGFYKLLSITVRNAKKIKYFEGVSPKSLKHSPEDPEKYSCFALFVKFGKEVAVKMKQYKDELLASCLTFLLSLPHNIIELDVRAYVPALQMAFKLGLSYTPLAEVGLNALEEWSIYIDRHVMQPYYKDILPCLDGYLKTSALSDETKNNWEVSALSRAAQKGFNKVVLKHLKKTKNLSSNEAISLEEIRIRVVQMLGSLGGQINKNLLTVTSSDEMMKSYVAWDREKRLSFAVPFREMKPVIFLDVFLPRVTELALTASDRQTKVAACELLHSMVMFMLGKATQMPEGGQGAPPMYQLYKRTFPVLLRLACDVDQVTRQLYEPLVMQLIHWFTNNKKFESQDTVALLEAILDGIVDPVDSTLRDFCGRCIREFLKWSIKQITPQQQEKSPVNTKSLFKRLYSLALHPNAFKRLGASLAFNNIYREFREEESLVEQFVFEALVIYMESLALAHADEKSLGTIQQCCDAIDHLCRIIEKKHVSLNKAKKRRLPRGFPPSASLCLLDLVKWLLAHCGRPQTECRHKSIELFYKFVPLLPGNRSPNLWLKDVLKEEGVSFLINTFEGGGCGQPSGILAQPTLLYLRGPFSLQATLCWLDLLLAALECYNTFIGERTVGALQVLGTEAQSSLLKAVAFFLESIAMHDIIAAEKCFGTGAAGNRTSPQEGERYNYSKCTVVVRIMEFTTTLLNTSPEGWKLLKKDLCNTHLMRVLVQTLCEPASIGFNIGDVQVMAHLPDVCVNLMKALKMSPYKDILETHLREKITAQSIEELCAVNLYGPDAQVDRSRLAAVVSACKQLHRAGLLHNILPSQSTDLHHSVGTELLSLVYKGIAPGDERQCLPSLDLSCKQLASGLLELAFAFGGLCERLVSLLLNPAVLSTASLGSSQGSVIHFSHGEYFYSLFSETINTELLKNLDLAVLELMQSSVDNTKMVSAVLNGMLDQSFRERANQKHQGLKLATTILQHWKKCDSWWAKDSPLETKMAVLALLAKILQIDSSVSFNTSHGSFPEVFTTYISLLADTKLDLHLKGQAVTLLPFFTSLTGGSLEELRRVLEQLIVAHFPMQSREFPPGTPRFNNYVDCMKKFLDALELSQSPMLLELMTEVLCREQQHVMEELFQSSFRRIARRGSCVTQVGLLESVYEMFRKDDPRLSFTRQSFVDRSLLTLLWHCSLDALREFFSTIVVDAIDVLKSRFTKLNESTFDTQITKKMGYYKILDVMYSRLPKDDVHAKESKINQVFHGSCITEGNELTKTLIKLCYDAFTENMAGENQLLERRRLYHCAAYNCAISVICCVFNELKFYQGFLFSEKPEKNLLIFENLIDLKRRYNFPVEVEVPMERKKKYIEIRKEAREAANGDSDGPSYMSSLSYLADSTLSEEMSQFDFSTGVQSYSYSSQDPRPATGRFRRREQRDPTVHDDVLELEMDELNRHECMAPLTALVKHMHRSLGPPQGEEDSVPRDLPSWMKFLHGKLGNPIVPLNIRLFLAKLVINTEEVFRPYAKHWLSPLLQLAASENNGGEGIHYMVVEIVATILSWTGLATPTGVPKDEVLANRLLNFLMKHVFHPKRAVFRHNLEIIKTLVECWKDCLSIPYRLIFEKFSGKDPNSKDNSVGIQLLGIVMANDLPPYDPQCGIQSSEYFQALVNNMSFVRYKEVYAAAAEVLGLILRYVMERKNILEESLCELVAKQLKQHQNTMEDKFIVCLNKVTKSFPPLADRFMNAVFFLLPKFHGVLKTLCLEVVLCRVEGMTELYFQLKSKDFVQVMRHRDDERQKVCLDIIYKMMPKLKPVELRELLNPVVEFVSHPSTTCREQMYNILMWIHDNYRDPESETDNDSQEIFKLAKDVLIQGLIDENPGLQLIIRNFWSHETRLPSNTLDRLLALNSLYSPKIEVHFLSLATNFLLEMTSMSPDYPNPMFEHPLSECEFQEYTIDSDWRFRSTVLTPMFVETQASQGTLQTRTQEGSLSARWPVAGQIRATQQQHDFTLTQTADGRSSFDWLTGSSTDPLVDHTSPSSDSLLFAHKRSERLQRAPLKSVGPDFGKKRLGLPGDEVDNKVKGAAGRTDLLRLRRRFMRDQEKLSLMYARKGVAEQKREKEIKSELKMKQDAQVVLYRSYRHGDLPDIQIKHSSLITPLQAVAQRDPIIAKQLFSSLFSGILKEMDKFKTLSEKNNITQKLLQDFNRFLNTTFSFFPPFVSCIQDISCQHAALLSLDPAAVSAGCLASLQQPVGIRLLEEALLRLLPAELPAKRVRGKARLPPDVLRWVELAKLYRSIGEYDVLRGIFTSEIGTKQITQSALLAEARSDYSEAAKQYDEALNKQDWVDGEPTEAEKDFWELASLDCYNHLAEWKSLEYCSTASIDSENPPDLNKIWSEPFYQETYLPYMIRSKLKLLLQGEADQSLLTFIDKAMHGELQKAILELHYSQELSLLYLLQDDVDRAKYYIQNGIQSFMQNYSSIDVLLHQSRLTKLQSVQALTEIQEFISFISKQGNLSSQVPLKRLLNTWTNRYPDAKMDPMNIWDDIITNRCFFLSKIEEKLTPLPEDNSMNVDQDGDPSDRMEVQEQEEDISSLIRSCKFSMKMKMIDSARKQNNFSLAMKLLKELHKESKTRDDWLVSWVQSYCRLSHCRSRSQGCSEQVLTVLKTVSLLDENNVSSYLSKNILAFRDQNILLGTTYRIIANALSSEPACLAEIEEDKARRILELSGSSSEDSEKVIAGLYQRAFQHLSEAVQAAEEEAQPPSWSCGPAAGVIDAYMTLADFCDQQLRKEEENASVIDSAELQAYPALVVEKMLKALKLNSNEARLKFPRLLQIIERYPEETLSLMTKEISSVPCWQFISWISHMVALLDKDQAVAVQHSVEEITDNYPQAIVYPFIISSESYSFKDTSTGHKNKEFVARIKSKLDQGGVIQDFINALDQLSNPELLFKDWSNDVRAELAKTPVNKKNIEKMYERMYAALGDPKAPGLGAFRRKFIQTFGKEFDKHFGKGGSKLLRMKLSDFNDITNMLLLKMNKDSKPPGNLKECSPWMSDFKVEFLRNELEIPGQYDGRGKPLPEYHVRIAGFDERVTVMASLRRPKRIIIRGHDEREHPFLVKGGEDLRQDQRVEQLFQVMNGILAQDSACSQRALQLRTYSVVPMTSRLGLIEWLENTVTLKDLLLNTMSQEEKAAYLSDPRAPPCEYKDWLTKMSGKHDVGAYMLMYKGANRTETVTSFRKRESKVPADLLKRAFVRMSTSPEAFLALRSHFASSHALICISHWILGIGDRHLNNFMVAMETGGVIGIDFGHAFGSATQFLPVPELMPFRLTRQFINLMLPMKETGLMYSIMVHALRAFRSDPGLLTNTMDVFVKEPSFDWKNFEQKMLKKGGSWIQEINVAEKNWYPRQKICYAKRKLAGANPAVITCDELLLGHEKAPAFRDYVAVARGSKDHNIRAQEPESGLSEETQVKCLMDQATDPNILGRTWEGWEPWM

PRKDC, construct: Full length, human (from UniProt P78527)
relative phosphorylation
Details	at +1	at +2	at +3	at +4	at -1	at -2	at -3	at -4	at -5
A fixed	0.244	1.11	0.987	0.798	1.14	1.28	1.11	0.908	1.01
D fixed	0.156	3.46	1.28	1.49	0.887	0.607	0.595	0.795	0.728
E fixed	0.145	2.46	1.6	1.57	1.08	0.733	0.681	0.895	0.773
F fixed	1.31	0.561	1.15	1.13	1.22	1.25	1.13	1.02	1.15
G fixed	0.222	0.753	0.712	0.971	2.01	1.28	1.11	1.35	1.13
H fixed	0.179	0.678	0.721	0.931	0.977	1.08	1.05	1.06	1.07
I fixed	0.705	0.41	0.935	0.728	0.352	0.969	1.08	1.07	1.03
K fixed	0.166	0.556	0.627	0.625	0.345	0.776	0.796	0.961	1.2
L fixed	2.21	0.558	0.943	0.715	0.87	0.831	1	0.953	0.957
M fixed	1.25	0.688	1.27	1.09	1.07	1.06	1.16	1.02	1.06
N fixed	0.407	0.879	0.7	0.902	1.25	1.25	0.829	0.829	0.879
P fixed	0.638	1.2	0.943	0.825	0.725	0.937	1.02	0.907	0.944
Q fixed	7.43	1	0.818	0.869	1.2	0.99	0.891	0.85	0.656
R fixed	0.362	0.725	0.623	0.88	0.686	1.13	1.12	1.17	1.21
V fixed	0.371	0.609	1.02	0.653	0.317	0.852	0.967	0.812	0.979
W fixed	0.309	0.656	1.36	1.6	0.835	0.916	1.16	1.18	1.11
Y fixed	0.892	0.702	1.31	1.22	2.04	1.06	1.3	1.22	1.11
pThr fixed	0.228	1.74	1.81	1.94	0.33	0.77	0.764	0.76	0.72
pTyr fixed	0.194	0.795	1.87	1.87	0.926	0.966	0.829	0.692	0.654

PRKG2, construct: Full length, human (from UniProt Q13237)
relative phosphorylation
Details	at +1	at +2	at +3	at +4	at -1	at -2	at -3	at -4	at -5
A fixed	0.876	1.35	1.04	0.834	0.761	0.368	0.816	1.28	1.24
D fixed	0.313	0.408	0.703	0.573	0.421	0.132	0.147	0.472	0.416
E fixed	0.45	0.386	0.697	0.601	0.361	0.113	0.206	0.584	0.415
F fixed	1.34	1.09	0.948	0.919	0.928	0.285	0.477	0.753	0.859
G fixed	0.563	0.911	1.2	1.07	0.529	0.387	0.983	1.23	1.21
H fixed	1.02	1.39	1.42	1.21	1.18	0.662	1.09	0.997	1.05
I fixed	1.56	1.16	0.83	1.01	0.993	0.24	0.337	0.731	0.883
K fixed	1.06	1.21	1.29	1.05	1.78	4.63	2.46	1.74	2.05
L fixed	1.29	0.936	0.943	0.883	1.16	0.321	0.376	0.789	0.745
M fixed	1.36	0.935	0.893	1.1	1.12	0.261	0.412	0.896	0.722
N fixed	0.801	0.765	0.893	1.04	0.921	0.436	0.577	0.766	0.803
P fixed	0.28	0.748	0.932	1.55	1.26	0.349	1.32	1.14	1.07
Q fixed	1.11	0.962	0.924	1.04	0.897	0.465	0.832	0.968	0.836
R fixed	1.41	1.21	1.49	1	1.76	7.58	5.47	2.24	2.01
V fixed	1.9	1.44	0.927	0.937	1.07	0.234	0.399	0.928	0.905
W fixed	0.766	1.01	0.832	1.29	0.66	0.283	0.514	0.762	0.884
Y fixed	0.901	1.09	1.04	0.892	1.2	0.265	0.575	0.716	0.902
pThr fixed	0.816	0.427	0.557	0.911	0.426	0.306	0.471	0.756	0.666
pTyr fixed	0.634	0.543	0.976	0.751	0.502	0.277	0.437	0.502	0.698
